Source: the Human Domainome abundance scans (Beltran et al. 2025)
± gives the uncertainty stated by the source.

B1: Far upstream element-binding protein 3, residues 75 to 150; numbered along this chain, Q96I24 (parent)
chain: RTVITEEFKVPDKMVGFIIGRGGEQISRIQAESGCKIQIASESSGIPERPCVLTGTPESIEQAKRLLGQIVDRCRN

Variants of: B1
Test: abundance fitness (aPCA) (normalised: wild type 0, dead -1); higher = more abundant; growth selection in yeast, the domain comes from the species named
Settings: Homo sapiens
With A40N the abundance fitness was -0.076 ± 0.057. In the case of I70P, the abundance fitness is reported as -0.335 ± 0.051. I70C gave an abundance fitness of -0.023 ± 0.039. Variant I70M has an abundance fitness of -0.013 ± 0.04. Work on I70W yielded an abundance fitness of -0.102 ± 0.035. With P47K the abundance fitness was -0.023 ± 0.039. Variant P47L has an abundance fitness of -0.043 ± 0.03. Variant P47T has an abundance fitness of -0.063 ± 0.036. In the case of R73I, the abundance fitness is reported as -0.136 ± 0.07. In the case of R73N, the abundance fitness is reported as 0.037 ± 0.066. Work on R73F yielded an abundance fitness of -0.103 ± 0.059. S59T showed an abundance fitness of -0.119 ± 0.046. With S59L the abundance fitness was -0.797 ± 0.047. S59M gave an abundance fitness of -0.152 ± 0.044. Work on S59W yielded an abundance fitness of -0.999 ± 0.061. In the case of S59F, the abundance fitness is reported as -1.1 ± 0.26. With D12M the abundance fitness was -0.144 ± 0.041. With D12G the abundance fitness was -0.095 ± 0.027. D12W showed an abundance fitness of -0.255 ± 0.034. For D12S, the abundance fitness was -0.027 ± 0.032. Variant G34W has an abundance fitness of -0.665 ± 0.048. Variant G34Y has an abundance fitness of -0.361 ± 0.074. With G34D the abundance fitness was -0.073 ± 0.047. For G34Q, the abundance fitness was -0.06 ± 0.049. G34H showed an abundance fitness of -0.155 ± 0.064. For I19C, the abundance fitness was -0.093 ± 0.047. With I19R the abundance fitness was -0.045 ± 0.03. In the case of I19S, the abundance fitness is reported as -0.045 ± 0.035. Work on I19V yielded an abundance fitness of -0.033 ± 0.033. I19G gave an abundance fitness of -0.102 ± 0.03. G68D showed an abundance fitness of -0.001 ± 0.048. With G68H the abundance fitness was -0.066 ± 0.071. With G68F the abundance fitness was -0.17 ± 0.058. G68S showed an abundance fitness of -0.065 ± 0.035. With G68R the abundance fitness was -0.036 ± 0.029. With G55K the abundance fitness was -0.972 ± 0.063. With G55W the abundance fitness was -1.34 ± 0.076. Variant G55V has an abundance fitness of -1.38 ± 0.066. G55I showed an abundance fitness of -1.12 ± 0.2. For S27N, the abundance fitness was 0.023 ± 0.073. S27P showed an abundance fitness of -0.232 ± 0.05. S27H showed an abundance fitness of -0.117 ± 0.066. Variant S27F has an abundance fitness of -0.153 ± 0.067. In the case of S27L, the abundance fitness is reported as -0.075 ± 0.037. E32I gave an abundance fitness of -0.04 ± 0.061. E32N gave an abundance fitness of -0.173 ± 0.079. Variant E32R has an abundance fitness of -0.039 ± 0.026. With E32P the abundance fitness was -0.95 ± 0.069. Variant E32D has an abundance fitness of -0.005 ± 0.047. With E32L the abundance fitness was -0.044 ± 0.03. F8Y gave an abundance fitness of -0.024 ± 0.076. F8T gave an abundance fitness of -0.042 ± 0.046. For F8H, the abundance fitness was -0.173 ± 0.071. F8N gave an abundance fitness of -0.353 ± 0.074. For E42K, the abundance fitness was -0.047 ± 0.052. E42F gave an abundance fitness of -0.093 ± 0.063. E42L showed an abundance fitness of -0.086 ± 0.034. E42Q showed an abundance fitness of -0.035 ± 0.042. E42V gave an abundance fitness of -0.041 ± 0.032. E42S gave an abundance fitness of -0.037 ± 0.037. With L53M the abundance fitness was -0.134 ± 0.045. Work on L53F yielded an abundance fitness of -0.354 ± 0.084. Work on R65D yielded an abundance fitness of -0.031 ± 0.057. In the case of R65C, the abundance fitness is reported as -0.092 ± 0.043. For R65K, the abundance fitness was 0.012 ± 0.044. For R65W, the abundance fitness was -0.069 ± 0.029. For R65A, the abundance fitness was -0.031 ± 0.033. Variant G23K has an abundance fitness of -0.082 ± 0.039. G23T gave an abundance fitness of -0.1 ± 0.036. G23Y showed an abundance fitness of -0.182 ± 0.061. In the case of G23F, the abundance fitness is reported as -0.117 ± 0.056. Work on K36W yielded an abundance fitness of -0.18 ± 0.037. Variant K36T has an abundance fitness of -0.051 ± 0.04. In the case of K36Y, the abundance fitness is reported as -0.14 ± 0.059. Work on K36S yielded an abundance fitness of -0.034 ± 0.035. K36V gave an abundance fitness of -0.101 ± 0.032. Variant T2F has an abundance fitness of -0.031 ± 0.063. Variant T2A has an abundance fitness of -0.049 ± 0.032. For T2E, the abundance fitness was 0 ± 0.04. For T2L, the abundance fitness was -0.05 ± 0.034. T2P gave an abundance fitness of -0.106 ± 0.044. For T2C, the abundance fitness was -0.114 ± 0.046. In the case of R21M, the abundance fitness is reported as -0.002 ± 0.047. R21Q showed an abundance fitness of -0.009 ± 0.041. In the case of R21F, the abundance fitness is reported as -0.147 ± 0.055. R21D gave an abundance fitness of -0.071 ± 0.051. Work on R21L yielded an abundance fitness of -0.057 ± 0.031. R21H gave an abundance fitness of -0.028 ± 0.053. In the case of P11T, the abundance fitness is reported as -0.136 ± 0.041. For F17L, the abundance fitness was -0.065 ± 0.034. Variant F17R has an abundance fitness of -0.018 ± 0.029. F17D gave an abundance fitness of 0.081 ± 0.05. With V71L the abundance fitness was -0.092 ± 0.034. For V71R, the abundance fitness was -0.151 ± 0.026. With V71G the abundance fitness was -0.105 ± 0.026. V71E showed an abundance fitness of -0.073 ± 0.034. For V71F, the abundance fitness was -0.099 ± 0.058. With V71M the abundance fitness was -0.013 ± 0.04. In the case of T56Q, the abundance fitness is reported as -0.127 ± 0.037. Variant T56S has an abundance fitness of -0.013 ± 0.031. For T56C, the abundance fitness was -0.097 ± 0.04. Work on T56Y yielded an abundance fitness of -0.049 ± 0.05. In the case of I29L, the abundance fitness is reported as -0.034 ± 0.031. Work on I29C yielded an abundance fitness of -0.191 ± 0.038. Variant I29P has an abundance fitness of -0.625 ± 0.051. I29W showed an abundance fitness of -0.521 ± 0.034. In the case of I29M, the abundance fitness is reported as -0.105 ± 0.038. Variant A63S has an abundance fitness of -0.401 ± 0.036. Variant A63V has an abundance fitness of -0.31 ± 0.031. A63G gave an abundance fitness of -0.065 ± 0.025. In the case of V15I, the abundance fitness is reported as -0.111 ± 0.051. With V15N the abundance fitness was -0.349 ± 0.06. Variant G20A has an abundance fitness of -0.118 ± 0.029. G20M gave an abundance fitness of -0.312 ± 0.046. In the case of G20V, the abundance fitness is reported as -0.707 ± 0.034. Work on I39G yielded an abundance fitness of -0.48 ± 0.027. I39Y showed an abundance fitness of -0.327 ± 0.06. In the case of I39W, the abundance fitness is reported as -0.159 ± 0.031. In the case of I39E, the abundance fitness is reported as -0.502 ± 0.037. I39R gave an abundance fitness of -0.526 ± 0.028. I39K gave an abundance fitness of -0.614 ± 0.046. I39Q showed an abundance fitness of -0.399 ± 0.041. For S43E, the abundance fitness was -0.049 ± 0.039. Variant S43I has an abundance fitness of 0.028 ± 0.069. In the case of S43P, the abundance fitness is reported as 0.018 ± 0.051. Work on S43W yielded an abundance fitness of -0.155 ± 0.038. With S43C the abundance fitness was 0.017 ± 0.053. Work on I4V yielded an abundance fitness of -0.047 ± 0.029. For I4Q, the abundance fitness was -0.087 ± 0.037. Variant I4F has an abundance fitness of -0.095 ± 0.049. With I4T the abundance fitness was -0.045 ± 0.041. In the case of I4A, the abundance fitness is reported as -0.122 ± 0.032. Variant I60F has an abundance fitness of -0.754 ± 0.076. Work on I60Q yielded an abundance fitness of -0.806 ± 0.062. Work on I60M yielded an abundance fitness of -0.343 ± 0.046. In the case of I60H, the abundance fitness is reported as -0.631 ± 0.071. P50A gave an abundance fitness of -0.042 ± 0.031. Work on P50N yielded an abundance fitness of 0.01 ± 0.052. P50E gave an abundance fitness of -0.01 ± 0.031. Variant P50K has an abundance fitness of -0.029 ± 0.036. For P50S, the abundance fitness was -0.046 ± 0.031. With V10A the abundance fitness was -0.287 ± 0.034. Work on V10P yielded an abundance fitness of -0.514 ± 0.044. For V10E, the abundance fitness was -0.631 ± 0.039. In the case of V10M, the abundance fitness is reported as -0.122 ± 0.039. With V10R the abundance fitness was -0.8 ± 0.035. With I18K the abundance fitness was -0.279 ± 0.039. Variant I18F has an abundance fitness of -0.133 ± 0.064. Work on I18V yielded an abundance fitness of -0.085 ± 0.03. Variant C35G has an abundance fitness of -0.663 ± 0.031. C35H gave an abundance fitness of -0.585 ± 0.12. In the case of C35E, the abundance fitness is reported as -0.539 ± 0.044. For I26K, the abundance fitness was -0.232 ± 0.041. Variant I26F has an abundance fitness of -0.173 ± 0.06. Work on I26E yielded an abundance fitness of -0.436 ± 0.037. Variant I26R has an abundance fitness of -0.251 ± 0.027. Variant I26A has an abundance fitness of -0.192 ± 0.034. S33P showed an abundance fitness of -0.728 ± 0.06. Variant S33M has an abundance fitness of -0.646 ± 0.052. With S33C the abundance fitness was -0.079 ± 0.039. With S33V the abundance fitness was -0.247 ± 0.033. S33F showed an abundance fitness of -0.591 ± 0.072. S33Q showed an abundance fitness of -0.732 ± 0.057. E48A showed an abundance fitness of -0.137 ± 0.031. Variant E48M has an abundance fitness of -0.048 ± 0.038. Variant E48R has an abundance fitness of -0.153 ± 0.029. With E48C the abundance fitness was -0.158 ± 0.041.
